The values that follow come from article PMC6943441, “The Meta-Position of Phe^4 in Leu-Enkephalin Regulates Potency, Selectivity, Functional Activity, and Signaling Bias at the Delta and Mu Opioid Receptors” (Molecules, 2019).

This test deals with mu opioid receptor (Homo sapiens), P35372. As to the kind of experiment: competition. The following applies: modification not given.
mu opioid receptor (Homo sapiens), P35372, sequence (P35372 whole entry): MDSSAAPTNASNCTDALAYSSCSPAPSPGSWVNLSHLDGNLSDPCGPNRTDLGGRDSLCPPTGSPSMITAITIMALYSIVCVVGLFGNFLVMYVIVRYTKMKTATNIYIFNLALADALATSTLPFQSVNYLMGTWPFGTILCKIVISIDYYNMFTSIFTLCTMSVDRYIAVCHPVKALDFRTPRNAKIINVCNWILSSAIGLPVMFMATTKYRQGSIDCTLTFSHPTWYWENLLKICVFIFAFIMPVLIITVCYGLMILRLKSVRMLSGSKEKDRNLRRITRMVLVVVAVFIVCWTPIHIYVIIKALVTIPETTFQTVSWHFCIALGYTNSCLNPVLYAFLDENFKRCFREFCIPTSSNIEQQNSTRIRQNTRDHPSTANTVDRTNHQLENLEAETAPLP

For orientation: Ki means a dissociation constant, usually derived from enzyme kinetics or from competition with a known ligand. The low end stands for higher affinity, the high end for lower affinity. Consider YAGFL [DADLE], for which the Ki amounted to 1.58 nM.
